Positions count from the first letter of the chain named.
B1: KIR2DL1-Fc fusion protein (Fc fusion)
chain: HEGVHRKPSLLAHPGRLVKSEETVILQCWSDVMFEHFLLHREGMFNDTLRLIGEHHDGVSKANFSISRMTQDLAGTYRCYGSVTHSPYQVSAPSDPLDIVIIGLYEKPSLSAQLGPTVLAGENVTLSCSSRSSYDMYHLSREGEAHERRLPAGPKVNGTFQADFPLGPATHGGTYRCFGSFHDSPYEWSKSSDPLLVSVTGNPSNSWPSPTEPSSKTGNPRHLH
B2: KIR2DS1-Fc fusion protein (Fc fusion)
chain: B1 chain with T70K, V90L, L114P, P154T, D163N, H182R, K216E

Target: HLA-Cw4-β2m complex refolded with peptide (human | )
Experiment: SPR

Row | Binder | Kd [µM]
1 | B1 | 6
2 | B2 | 23
